Experimental findings from patent publication US20210077575A1 (CEDARS SINAI MEDICAL CENTER, published 2021) are described below.

The assay has as its target T1, HER3 (human, UniProt P21860 20-1342).
T1 construct: whole, on cells; Endogenous receptor on tumour cell lines; also called ErbB3; Human ErbB3/HER3
Put plainly: confocal immunofluorescence, SK-MEL-2 cells treated with HerPBK10-GFPD10 nanoparticles, 0 minutes.

T1 sequence (P21860 20-1342): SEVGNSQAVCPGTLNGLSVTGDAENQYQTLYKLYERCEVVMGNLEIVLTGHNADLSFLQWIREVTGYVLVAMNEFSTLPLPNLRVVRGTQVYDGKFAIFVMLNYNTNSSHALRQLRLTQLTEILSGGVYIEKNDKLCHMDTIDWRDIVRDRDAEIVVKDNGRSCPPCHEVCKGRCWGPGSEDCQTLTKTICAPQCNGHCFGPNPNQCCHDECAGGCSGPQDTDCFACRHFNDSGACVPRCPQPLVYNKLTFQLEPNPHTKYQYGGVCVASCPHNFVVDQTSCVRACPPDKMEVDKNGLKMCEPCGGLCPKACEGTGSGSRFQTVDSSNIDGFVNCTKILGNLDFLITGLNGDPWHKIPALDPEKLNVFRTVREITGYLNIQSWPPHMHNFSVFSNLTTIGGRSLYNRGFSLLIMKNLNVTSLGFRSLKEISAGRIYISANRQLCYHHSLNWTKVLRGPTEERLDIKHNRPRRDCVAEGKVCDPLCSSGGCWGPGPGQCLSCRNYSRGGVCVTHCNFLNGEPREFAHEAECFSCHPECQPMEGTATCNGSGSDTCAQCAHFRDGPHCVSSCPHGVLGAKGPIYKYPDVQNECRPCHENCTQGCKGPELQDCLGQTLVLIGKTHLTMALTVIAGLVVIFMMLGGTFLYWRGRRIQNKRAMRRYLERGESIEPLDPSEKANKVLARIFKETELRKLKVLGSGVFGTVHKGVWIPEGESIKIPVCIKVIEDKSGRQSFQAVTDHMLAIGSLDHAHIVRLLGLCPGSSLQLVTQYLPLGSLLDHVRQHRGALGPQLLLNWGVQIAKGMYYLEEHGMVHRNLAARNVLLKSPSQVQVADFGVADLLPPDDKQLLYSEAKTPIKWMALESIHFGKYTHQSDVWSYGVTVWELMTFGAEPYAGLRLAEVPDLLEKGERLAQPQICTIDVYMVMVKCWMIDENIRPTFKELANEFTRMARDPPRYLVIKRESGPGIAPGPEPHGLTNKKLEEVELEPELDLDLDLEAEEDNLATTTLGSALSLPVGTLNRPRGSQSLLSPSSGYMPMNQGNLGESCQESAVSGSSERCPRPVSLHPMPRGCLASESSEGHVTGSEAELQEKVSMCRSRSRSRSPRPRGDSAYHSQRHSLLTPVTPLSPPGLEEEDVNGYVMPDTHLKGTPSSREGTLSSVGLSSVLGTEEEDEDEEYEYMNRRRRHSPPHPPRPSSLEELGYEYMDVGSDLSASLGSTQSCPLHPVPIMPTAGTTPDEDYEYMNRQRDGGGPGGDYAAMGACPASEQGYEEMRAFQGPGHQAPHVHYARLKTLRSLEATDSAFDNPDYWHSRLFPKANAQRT
Procedure: The cells were counterstained using DAPI to stain the nucleus and rhodamine phalloidin to stain actin.
Images were taken after 0, 15, 30, 60, and 120 minutes using confocal microscopy.

B1: HerPBK10 carrier polypeptide comprising a Her cell-targeting segment, a penton base (PB) segment, a decalysine (K10) binding segment, and an N-terminal … (other)
chain: MRGSHHHHHHGMASMTGGQQMGRDLYDDDDKDRWGSELLPPQLKEMKSQESAAGSKLVLRCETSSEYSSLRFKWFKNGNELNRKNKPQNIKIQKKPGKSELRINKASLADSGEYMCKVISKLGNDSASANIAIVESNEIITGMPASTEGAYVSSESPIRISVSTEGANTSSSTSTSTTGTSHLVKCAEKEKTFCVNGGECFMVKDLSNPSRYLCKCQPGFTGARCTENVPMKVQNQEKAEELYGGSGGSRSMRRAAMYEEGPPPSYESVVSAAPVAAALGSPFDAPLDPPFVPPRYLRPTGGRNSIRYSELAPLFDTTRVYLVDNKSTDVASLNYQNDHSNFLTTVIQNNDYSPGEASTQTINLDDRSHWGGDLKTILHTNMPNVNEFMFTNKFKARVMVSRLPTKDNQVELKYEWVEFTLPEGNYSETMTIDLMNNAIVEHYLKVGRQNGVLESDIGVKFDTRNFRLGFDPVTGLVMPGVYTNEAFHPDIILLPGCGVDFTHSRLSNLLGIRKRQPFQEGFRITYDDLEGGNIPALLDVDAYQASLKDDTEQGGGGAGGSNSSGSGAEENSNAAAAAMQPVEDMNDHAIRGDTFATRAEEKRAEAEAAAEAAAPAAQPEVEKPQKKPVIKPLTEDSKKRSYNLISNDSTFTQYRSWYLAYNYGDPQTGIRSWTLLCTPDVTCGSEQVYWSLPDMMQDPVTFRSTRQISNFPVVGAELLPVHSKSFYNDQAVYSQLIRQFTSLTHVFNRFPENQILARPPAPTITTVSENVPALTDHGTLPLRNSIGGVQRVTITDARRRTCPYVYKALGIVSPRVLSSRTFKKKKKKKKKK
B1: the binding result was “binds”.
